Measured values as given in patent publication US20030198990A1 (UNIVERSITY OF ROCHESTER, published 2003).

B1: Rb fragment (aa 371-928) ligated to the DBD of GAL4 (other)
chain: MKLLSSIEQACDICRLKKLKCSKEKPKCAKCLKNNWECRYSPKTKRSPLTRAHLTEVESRLERLEQLFLLIFPREDLDMILKMDSLQDIKALLTGLFVQDNVNKDAVTDRLASVETDMPLTLRQHRISATSSSEESSNKGQRQLTVSPHTPVRTVMNTIQQLMMILNSASDQPSENLISYFNNCTVNPKESILKRVKDIGYIFKEKFAKAVGQGCVEIGSQRYKLGVRLYYRVMESMLKSEEERLSIQNFSKLLNDNIFHMSLLACALEVVMATYSRSTSQNLDSGTDLSFPWILNVLNLKAFDFYKVIESFIKAEGNLTREMIKHLERCEHRIMESLAWLSDSPLFDLIKQSKDREGPTDHLESACPLNLPLQNNHTAADMYLSPVRSPKKKGSTTRVNSTANAETQATSAFQTQKPLKSTSLSLFYKKVYRLAYLRLNTLCERLLSEHPELEHIIWTLFQHTLQNEYELMRDRHLDQIMMCSMYGICKVKNIDLKFKIIVTAYKDLPHAVQETFKRVLIKEEEYDSIIVFYNSVFMQRLKTNILQYASTRPPTLSPIPHIPRSPYKFPSSPLRIPGGNIYISPLKSPYKISEGLPTPTKMTPRSRILVSIGESFGTSEKFQKINQMVCNSDRVLKRSAEGSNPPKPLKKLRFDIEGSDEADGSKHLPGESKFQQKLAEMTSTRTRMQKQKMNDSMDTSNKEEK

Tests used:
[1] = target: T1, near full-length AR (nAR, aa 36-918) ligated to transcriptional activator VP16 (human, UniProt P10275 36-918); experiment: cell-based or functional assay
T1 sequence: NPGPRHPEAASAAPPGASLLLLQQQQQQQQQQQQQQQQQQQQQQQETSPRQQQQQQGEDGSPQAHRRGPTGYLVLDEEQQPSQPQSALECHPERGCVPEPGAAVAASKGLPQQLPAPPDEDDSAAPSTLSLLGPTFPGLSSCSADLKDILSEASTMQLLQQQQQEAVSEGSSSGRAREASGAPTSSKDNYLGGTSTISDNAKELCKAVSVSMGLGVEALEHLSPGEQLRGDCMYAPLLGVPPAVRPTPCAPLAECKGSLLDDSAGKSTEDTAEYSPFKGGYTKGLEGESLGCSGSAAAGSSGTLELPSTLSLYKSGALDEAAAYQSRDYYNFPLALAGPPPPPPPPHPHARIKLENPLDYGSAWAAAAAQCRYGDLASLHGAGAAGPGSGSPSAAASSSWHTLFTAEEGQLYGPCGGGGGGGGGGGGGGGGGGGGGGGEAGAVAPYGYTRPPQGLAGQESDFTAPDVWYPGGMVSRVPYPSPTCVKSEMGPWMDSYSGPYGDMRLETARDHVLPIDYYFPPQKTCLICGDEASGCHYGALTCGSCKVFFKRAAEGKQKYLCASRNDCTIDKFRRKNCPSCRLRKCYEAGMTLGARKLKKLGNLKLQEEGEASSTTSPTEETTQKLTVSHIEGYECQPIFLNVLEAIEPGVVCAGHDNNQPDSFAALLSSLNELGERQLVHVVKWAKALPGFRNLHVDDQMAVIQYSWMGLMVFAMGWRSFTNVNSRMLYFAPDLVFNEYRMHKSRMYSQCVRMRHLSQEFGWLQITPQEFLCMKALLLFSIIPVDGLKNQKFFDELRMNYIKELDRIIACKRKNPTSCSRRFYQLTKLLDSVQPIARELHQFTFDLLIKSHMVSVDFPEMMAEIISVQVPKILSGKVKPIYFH

[2] = target: T2, human androgen receptor (AR), full length (human, UniProt P10275 1-920); experiment: assay not given
T2 construct: mature; Full-length AR as used in the co-immunoprecipitations; The ARA54 co-IP used anti-His.tag antibodies; also called wtAR; wild type AR
T2 sequence (looked up): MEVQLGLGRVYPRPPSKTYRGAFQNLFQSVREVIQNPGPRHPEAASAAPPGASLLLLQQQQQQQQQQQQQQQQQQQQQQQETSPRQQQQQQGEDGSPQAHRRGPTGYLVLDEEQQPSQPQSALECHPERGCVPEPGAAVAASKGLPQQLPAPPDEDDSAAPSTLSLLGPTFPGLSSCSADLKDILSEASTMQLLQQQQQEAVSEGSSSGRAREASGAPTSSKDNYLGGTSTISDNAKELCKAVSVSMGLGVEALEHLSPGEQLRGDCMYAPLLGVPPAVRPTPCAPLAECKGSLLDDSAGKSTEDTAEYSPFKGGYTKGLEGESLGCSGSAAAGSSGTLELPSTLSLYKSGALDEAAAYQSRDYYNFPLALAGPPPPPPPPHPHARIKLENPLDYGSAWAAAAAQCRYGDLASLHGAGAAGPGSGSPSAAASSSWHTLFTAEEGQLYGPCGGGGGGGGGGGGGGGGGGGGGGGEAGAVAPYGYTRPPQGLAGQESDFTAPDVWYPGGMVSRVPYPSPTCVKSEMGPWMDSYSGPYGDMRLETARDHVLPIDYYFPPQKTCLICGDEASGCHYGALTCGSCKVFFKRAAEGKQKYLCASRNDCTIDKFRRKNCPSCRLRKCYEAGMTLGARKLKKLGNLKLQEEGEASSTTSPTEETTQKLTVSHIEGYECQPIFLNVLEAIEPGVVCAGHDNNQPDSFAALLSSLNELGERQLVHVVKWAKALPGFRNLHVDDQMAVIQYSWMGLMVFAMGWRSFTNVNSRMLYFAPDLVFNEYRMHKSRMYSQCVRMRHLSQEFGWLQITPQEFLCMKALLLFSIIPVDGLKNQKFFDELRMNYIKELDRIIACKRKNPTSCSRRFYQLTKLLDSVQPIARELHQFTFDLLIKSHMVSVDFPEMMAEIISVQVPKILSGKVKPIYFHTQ

[3] = target: T3, GAL0AR: hormone binding domain of wtAR fused to the GAL4 DBD (human, UniProt P04386 1-147; P10275 625-920); experiment: mammalian two-hybrid, CAT reporter, DU145 cells
T3 construct: range 1-147;domain: hinge and LBD; also called pGAL0-AR (wild-type); GAL4DBD fused to E region of human AR

[4] = target: B1; experiment: mammalian two-hybrid, CAT reporter, DU145 cells
[5] = target: T2, human androgen receptor (AR), full …; experiment: cell-based or functional assay
[6] = target: T1, near full-length AR (nAR, aa 36-918) …; experiment: mammalian two-hybrid, CAT reporter, DU145 cells
[7] = target: T4, GAL0 empty vector (GAL4 DBD alone) (UniProt P04386 1-147); experiment: mammalian two-hybrid, CAT reporter, DU145 cells
T4 construct: range 1-147; Control of the mammalian two-hybrid assay; also called pGAL0

Binder: B1
- CAT activity, mammalian two-hybrid system in DU145 cells [1]: 3 fold

B2: C-terminal domain of ARA55 (amino acids 251-444) (other)
chain: EKDGAPFCPECYFERFSPRCGFCNQPIRHKMVTALGTHWHPEHFCCVSCGEPFGDEGFHEREGRPYCRRDFLQLFAPRCQGCQGPILDNYISALSLLWHPDCFVCRECFAPFSGGSFFEHEGRPLCENHFHARRGSLCPTCGLPVTGRCVSALGRRFHPDHFACTFCLRPLTKGSFQERAGKPYCQPCFLKLFG
notes: also called ARA55251-444; C-terminus of ARA55
- binding result [2]: binds

B3: VP16 vector (VP16 activation domain alone) (other)
chain: APPTDVSLGDELHLDGEDVAMAHADALDDFDLDMLGDGDSPGPGFTPHDSAPYGALDMADFEFEQMFTDALGIDEYGG
notes: Control of the mammalian two-hybrid assay; also called pCMX-VP16
- binding result [3]: no binding

B4: AR-LBD (aa 590-918) ligated to transcriptional activator VP16 (receptor)
chain: GKQKYLCASRNDCTIDKFRRKNCPSCRLRKCYEAGMTLGARKLKKLGNLKLQEEGEASSTTSPTEETTQKLTVSHIEGYECQPIFLNVLEAIEPGVVCAGHDNNQPDSFAALLSSLNELGERQLVHVVKWAKALPGFRNLHVDDQMAVIQYSWMGLMVFAMGWRSFTNVNSRMLYFAPDLVFNEYRMHKSRMYSQCVRMRHLSQEFGWLQITPQEFLCMKALLLFSIIPVDGLKNQKFFDELRMNYIKELDRIIACKRKNPTSCSRRFYQLTKLLDSVQPIARELHQFTFDLLIKSHMVSVDFPEMMAEIISVQVPKILSGKVKPIYFH
notes: range 590-918; Mammalian two-hybrid construct, DU145 cells; also called pCMX-VP16-AR
- binding result [4]: no binding

B5: ARA70 (other, UniProt Q13772 1-614, looked up)
chain: MNTFQDQSGSSSNREPLLRCSDARRDLELAIGGVLRAEQQIKDNLREVKAQIHSCISRHLECLRSREVWLYEQVDLIYQLKEETLQQQAQQLYSLLGQFNCLTHQLECTQNKDLANQVSVCLERLGSLTLKPEDSTVLLFEADTITLRQTITTFGSLKTIQIPEHLMAHASSANIGPFLEKRGCISMPEQKSASGIVAVPFSEWLLGSKPASGYQAPYIPSTDPQDWLTQKQTLENSQTSSRACNFFNNVGGNLKGLENWLLKSEKSSYQKCNSHSTTSSFSIEMEKVGDQELPDQDEMDLSDWLVTPQESHKLRKPENGSRETSEKFKLLFQSYNVNDWLVKTDSCTNCQGNQPKGVEIENLGNLKCLNDHLEAKKPLSTPSMVTEDWLVQNHQDPCKVEEVCRANEPCTSFAECVCDENCEKEALYKWLLKKEGKDKNGMPVEPKPEPEKHKDSLNMWLCPRKEVIEQTKAPKAMTPSRIADSFQVIKNSPLSEWLIRPPYKEGSPKEVPGTEDRAGKQKFKSPMNTSWCSFNTADWVLPGKKMGNLSQLSSGEDKWLLRKKAQEVLLNSPLQEEHNFPPDHYGLPAVCDLFACMQLKVDKEKWLYRTPLQM
notes: also called AR associated protein ARA70
- induced CAT activity in mammalian two-hybrid assay [5]: 12 fold
- binding result [4]: no binding

B6: PR-LBD (receptor, UniProt P06401 679-933, looked up)
chain: QDIQLIPPLINLLMSIEPDVIYAGHDNTKPDTSSSLLTSLNQLGERQLLSVVKWSKSLPGFRNLHIDDQITLIQYSWMSLMVFGLGWRSYKHVSGQMLYFAPDLILNEQRMKESSFYSLCLTMWQIPQEFVKLQVSQEEFLCMKVLLLLNTIPLEGLRSQTQFEEMRSSYIRELIKAIGLRQKGVVSSSQRFYQLTKLLDNLHDLVKQLHLYCLNTFIQSRALSVEFPEMMSEVIAAQLPKILAGMVKPLLFHKK
notes: domain: LBD; Control in the mammalian two-hybrid assay; the construct is not described
- binding result [6]: no binding

B7: VP16-ARA55: full-length ARA55 fused to the activation domain of VP16 (other)
chain: MPRSGAPKERPAEPLTPPPSYGHQPTGQSGESSGASGDKDHLYSTVCKPRSPKPAAPAAPPFSSSSGVLGTGLCELDRLLQELNATQFNITDEIMSQFPSSKVASGEQKEDQSEDKKRPSLPSSPSPGLPKASATSATLELDRLMASLPDFRVQNHLPASGPTQPPVVSSTNEGSPSPPEPTAKGSLDTMLGLLQSDLSRRGVPTQAKGLCGSCNKPIAGQVVTALGRAWHPEHFVCGGCSTALGGSSFFEKDGAPFCPECYFERFSPRCGFCNQPIRHKMVTALGTHWHPEHFCCVSCGEPFGDEGFHEREGRPYCRRDFLQLFAPRCQGCQGPILDNYISALSLLWHPDCFVCRECFAPFSGGSFFEHEGRPLCENHFHARRGSLCPTCGLPVTGRCVSALGRRFHPDHFACTFCLRPLTKGSFQERAGKPYCQPCFLKLFG
notes: Mammalian two-hybrid construct, expressed in DU145 cells
- binding result [7]: no binding
